# Data reported in doi:10.1101/2021.09.07.459239.
# Experiments:
# [1] = target: CD80 cytosolic tail peptide (20-mer); test: ELISA
# [2] = target: CD86 cytosolic tail peptide (20-mer); test: ELISA
# [3] = target: rF2-Nef protein (HIV-1 Subtype C), full length wild type (HIV-1 subtype C (F2 isolate)); test: MST
Molecule,fold increase of ELISA signal over CD74 peptide or no-peptide wells [1] [fold],fold increase of ELISA signal over CD74 peptide or no-peptide wells [2] [fold],Kd [3] [µM]
"rF2-Nef protein (HIV-1 Subtype C), full length wild type (natural protein)",4,4,
PRCRERRRNERLRRESVRPV [CD80 cytosolic tail peptide (20-mer)],,,27
LWKWKKKKRPRNSYKCGTNT [CD86 cytosolic tail peptide (20-mer)],,,0.112
